According to patent US20080020978A1 (Amgen, published 2008):
Numbered stars: 1 amine (or outer) side, 2 acyl side, 3 side chain; on linkers, the order of the positions; unused ones are H or OH. Square brackets hold non-standard residues; d marks the D form. Ends that are not written are not given here. * marks the point of attachment. 20 kDa MeO‑PEG = methoxy-polyethylene glycol of 20 kDa conjugated to the residue side chain; 13C1,2Ac = N-terminal acetyl group labelled with 13C at carbons 1 and 2, [13CH3][13C](=O)*; 15N‑F = phenylalanine labelled with 15N, O=C([C@H](Cc1ccccc1)[15NH][*:1])[*:2]; Cit = NC(=O)NCCC[C@H](N)C(=O)O

Molecular target: T1, CGRP1 receptor (CRLR/RAMP1 complex) of human neuroblastoma SK-N-MC cells (human, UniProt Q16602 23-461; O60894 27-148)
T1 sequence (Q16602 23-461, chain 1 of 2): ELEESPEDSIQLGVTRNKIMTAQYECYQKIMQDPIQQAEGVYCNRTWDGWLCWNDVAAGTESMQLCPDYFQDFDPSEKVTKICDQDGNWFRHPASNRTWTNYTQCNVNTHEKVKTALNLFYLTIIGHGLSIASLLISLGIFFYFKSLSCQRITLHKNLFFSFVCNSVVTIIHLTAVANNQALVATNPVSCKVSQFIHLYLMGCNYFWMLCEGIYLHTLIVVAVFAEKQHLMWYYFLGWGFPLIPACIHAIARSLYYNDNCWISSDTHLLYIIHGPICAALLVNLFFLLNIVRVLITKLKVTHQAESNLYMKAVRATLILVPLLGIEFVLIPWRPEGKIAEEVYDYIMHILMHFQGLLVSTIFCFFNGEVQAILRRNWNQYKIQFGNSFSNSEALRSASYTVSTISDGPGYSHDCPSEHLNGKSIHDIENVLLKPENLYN
T1 sequence (O60894 27-148, chain 2 of 2): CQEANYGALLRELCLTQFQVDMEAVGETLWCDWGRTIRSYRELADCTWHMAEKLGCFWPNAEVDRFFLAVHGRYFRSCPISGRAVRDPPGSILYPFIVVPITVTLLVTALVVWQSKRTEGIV
Assay: cell-based or functional assay

Row | Binder | IC50 [nM]
1 | Ac-WVTHRLAGLAS[Cit]SGGVVRKNFVPTDVGPFAF-NH2 (SMILES CC(=O)N[C@@H](Cc1c[nH]c2ccccc12)C(=O)N[C@H](C(=O)N[C@H](C(=O)N[C@@H](Cc1c[nH]cn1)C(=O)N[C@@H](CCCNC(=N)N)C(=O)N[C@@H](CC(C)C)C(=O)N[C@@H](C)C(=O)NCC(=O)N[C@@H](CC(C)C)C(=O)N[C@@H](C)C(=O)N[C@@H](CO)C(=O)N[C@@H](CCCNC(N)=O)C(=O)N[C@@H](CO)C(=O)NCC(=O)NCC(=O)N[C@H](C(=O)N[C@H](C(=O)N[C@@H](CCCNC(=N)N)C(=O)N[C@@H](CCCCN)C(=O)N[C@@H](CC(N)=O)C(=O)N[C@@H](Cc1ccccc1)C(=O)N[C@H](C(=O)N1CCC[C@H]1C(=O)N[C@H](C(=O)N[C@@H](CC(=O)O)C(=O)N[C@H](C(=O)NCC(=O)N1CCC[C@H]1C(=O)N[C@@H](Cc1ccccc1)C(=O)N[C@@H](C)C(=O)N[C@@H](Cc1ccccc1)C(N)=O)C(C)C)[C@@H](C)O)C(C)C)C(C)C)C(C)C)[C@@H](C)O)C(C)C) [SEQ ID NO 850] | 1.85
2 | {13C1,2Ac}-WVTHRLAGLLSRSGGVVRK(20 kDa MeO‑PEG)NFVPTDVGPFA[15N‑F]-NH2 [SEQ ID NO 803] | 3.28
3 | Ac-WVTHRLAGLLSRSGGVCRNNFVPTDVGPFAF-NH2 [SEQ ID NO 820] | 0.36
4 | Ac-WVTHQLAGLLSQSGGVVRK(20 kDa MeO‑PEG)NFVPTDVGPFAF-NH2 [SEQ ID NO 818] | 7.18
5 | Ac-WVTHRLAGLLSRSGGVK(20 kDa MeO‑PEG)RNNFVPTDVGPFAF-NH2 [SEQ ID NO 824] | 0.98
6 | Ac-WVTHRLAGLLSRPGGVVRKNFVPTDVGPFAF-NH2 [SEQ ID NO 854] | 1.27
7 | Ac-WVTHRLAGLLSRSGGVC(20 kDa MeO‑PEG)RNNFVPTDVGPFAF-NH2 [SEQ ID NO 821] | 0.16
8 | Ac-WVTHRLAGLAS[Cit]SGGVVRK(MeO‑PEG 20 kDa)NFVPTDVGPFAF-NH2 [SEQ ID NO 851] | 228
9 | Ac-WVTHRLAGLLSRSGGVKRNNFVPTDVGPFAF-NH2 [SEQ ID NO 823] | 0.51
10 | Ac-WVTH[Cit]LAGLAS[Cit]SGGVVRK(20 kDa MeO‑PEG)NFVPTDVGPFAF-NH2 [SEQ ID NO 853] | > 1000
11 | Ac-WVTHRLAGLLSQSGGVVRK(20 kDa MeO‑PEG)NFVPTDVGPFAF-NH2 [SEQ ID NO 815] | 0.46
12 | Ac-WVTH[Cit]LAGLAS[Cit]SGGVVRKNFVPTDVGPFAF-NH2 [SEQ ID NO 852] | 23.4
13 | Ac-WVTHRLAGLLSQSGGVVRKNFVPTDVGPFAF-NH2 [SEQ ID NO 814] | 0.47
14 | Ac-WVTHRLAGLLSRPGGVVRK(20 kDa MeO‑PEG)NFVPTDVGPFAF-NH2 [SEQ ID NO 855] | 18
15 | Ac-WVTHQLAGLLSQSGGVVRK(20 kDa MeO‑PEG)NFVPTDVGPFAF-NH2 [SEQ ID NO 817] | 5.24
16 | WVTHRLAGLLSXSGGVVRKNFVPTDVGPFAF (Ac-WVTHRLAGLLS[hArg]SGGVVRK^(20 kDa MeO-PEG)NFVPTDVGPFAF-amide) [SEQ ID NO 787] | 0.33
17 | WVTHXLAGLLSRSGGVVRKNFVPTDVGPFAF (Ac-WVTH[Cit]LAGLLSRSGGV VRK^(20 kDa MeO-PEG)NFVPTDVGPFAF-amide) [SEQ ID NO 799] | 2.08
18 | WVTHXLAGLLSRSGGVVRKNFVPTDVGPFAF (Ac-WVTH[Cit]LAGLLSRSGGV VRKNFVPTDVGPFAF-amide) [SEQ ID NO 798] | 0.57
19 | WVTHXLAGLLSRSGGVVRKNFVPTDVGPFAF (Ac-WVTH[hArg]LAGLLSRSGGVVRKNFVPTDVGPFAF-amide) [SEQ ID NO 788] | 0.44
20 | WVTHRLAGLLSXSGGVVRKNFVPTDVGPFAF (Ac-WVTHRLAGLLS[Cit]SGG VVRKNFVPTDVGPFAF-amide) [SEQ ID NO 796] | 0.58
21 | WVTHRLAGLLSRSGGVVRNCFVPTDVGPFAF (Ac-WVTHRLAGLLSRSGGVVRNC^(20 kDa MeO-PEG)FVPTDVGPFAF-amide) [SEQ ID NO 801] | 1.64
22 | WVTHXLAGLLSXSGGVVRKNFVPTDVGPFAF (Ac-WVTH[Cit]LAGLLS[Cit]SGG VVRKNFVPTDVGPFAF-amide) [SEQ ID NO 790] | 1.7
23 | WVTHXLAGLLSRSGGVVRKNFVPTDVGPFAF (Ac-WVTH[hArg]LAGLLSRSGGVVRK^(20 kDa MeO-PEG)NFVPTDVGPFAF-amide) [SEQ ID NO 789] | 0.36
24 | WVTHRLAGLLSXSGGVVRKNFVPTDVGPFAF (Ac-WVTHRLAGLLS[Cit]SGG VVRK^(20 kDa MeO-PEG)NFVPTDVGPFAF-amide) [SEQ ID NO 797] | 0.96
25 | Ac-WVTHQLAGLLSQSGGVVRKNFVPTDVGPFAF-NH2 [SEQ ID NO 816] | 0.53

Molecular target: T1, CGRP1 receptor (CRLR/RAMP1 complex) of …
Assay: 125I-hαCGRP competition, SK-N-MC membranes
Method: CGRP₁ binding experiments. […] The plates were incubated at room temperature for 2 hour with shaking at 60 rpm, then the contents of each well were filtered over 0.5% polyethyleneimine (PEI)-treated (at least one hour) GF/C 96-well filter plates. The GF/C filter plates were washed 6 times with ice-cold 50 mM Tris, pH 7.5 and dried in an oven at 55 C for 1 hour. The bottoms of the GF/C plates were then sealed, and 40 μl Microscint™ 20 was added to each well, then the tops of the GF/C plates were sealed with TopSeal™-A, a press-on adhesive sealing film, and the GF/C plates were counted with TopCount NXT (Packard). The data were analyzed by using ActivityBase (IDBS) or Prizm (GraphPad) software.

Row | Binder | Ki [nM]
26 | C(MeO‑PEG 5 kDa)GGGGGGGVTHRLAGLLSRSGGVVKNNFVPTNVGSKAF-NH2 [SEQ ID NO 690] | 3070
27 | CGGGGGGGVTHRLAGLLSRSGGVVKNNFVPTDVGPFAF-NH2 (not fully specified (residue 1)) [SEQ ID NO 692] | 20.8
28 | VTHRLAGLLSRSGGVVKCNFVPTNVGSKAF (VTHRLAGLLSRSGGVVKC^(5 kDa MeO-PEG)NFVPTNVGSKAF-amide) [SEQ ID NO 694] | 31.8
29 | WVTHRLAGLLSRSGGVVKCNFVPTDVGPFAF-NH2 [SEQ ID NO 689] | 0.95
30 | Ac-VTHRLAGLLSRSGGVVRK(20 kDa PEG)NFVPTDVGPFAF-NH2 [SEQ ID NO 230] | 0.17
31 | WVTHRLAGLLSRSGGVVKC(MeO‑PEG 5 kDa)NFVPTDVGPFAF-NH2 [SEQ ID NO 696] | 0.21
32 | Ac-VTHRLAGLLSRSGGVVRK(PEG 5 kDa)NFVPTDVGPFAF-NH2 [SEQ ID NO 229] | 0.06
33 | VTHRLAGLLSRSGGVVKCNFVPTNVGSKAF (VTHRLAGLLSRSGGVVKC^(5 kDa MeO-PEG)NFVPTNVGSKAF-amide) [SEQ ID NO 693] | 17.5
34 | VTHRLAGLLSRSGGVVC(MeO‑PEG 5 kDa)NNFVPTNVGSKAF-NH2 [SEQ ID NO 691] | 157
35 | C(MeO‑PEG 5 kDa)GGGGGGGWVTHRLAGLLSRSGGVVKNNFVPTDVGPFAF-NH2 [SEQ ID NO 697] | 5.74
36 | Ac-WVTHRLAGLLSRSGGVVKC(PEG 30 kDa)NFVPTDVGPFAF-NH2 [SEQ ID NO 232] | 0.27
37 | Ac-WVTHRLAGLLSRSGGVVKCNFVPTDVGPFAF-NH2 (not fully specified (residue 19); printed as Ac-WVTHRLAGLLSRSGGVVKC^(20 kDa PEG)NFVPTDVGPFAF-amide) [SEQ ID NO 231] | 0.27
38 | Ac-WVTHRLAGLLSRSGGVVRCNFVPTDVGPFAF-NH2 [SEQ ID NO 680] | 0.58
39 | Ac-WVTHRLAGLLSRSGGVVCNNFVPTDVGPFAF-NH2 [SEQ ID NO 682] | 0.34
40 | Ac-WVTHRLAGLLSRSGGVVKNNFVPTDVGPFAF-NH2 [SEQ ID NO 684] | 0.08
41 | WVTHRLAGLLSRSGGVVKCNFVPTNVGSKAF (WVTHRLAGLLSRSGGVVKC^(5 kDa MeO-PEG)NFVPTNVGSKAF-amide) [SEQ ID NO 695] | 5.44
42 | Ac-WVTHRLAGLLSRSGGVVRCNFVPTDVGPFAF-NH2 (not fully specified (residue 19); printed as Ac-WVTHRLAGLLSRSGGVVRC^(20 kDa PEG)NFVPTDVGPFAF-amide) [SEQ ID NO 681] | 0.6
43 | Ac-WVTHRLAGLLSRSGGVVCNNFVPTDVGPFAF-NH2 (not fully specified (residue 18); printed as Ac-WVTHRLAGLLSRSGGVVC^(20 kDa PEG)NNFVPTDVGPFAF-amide) [SEQ ID NO 683] | 1.58
44 | WVTHXLAGLLSXSGGVVXKNFVPTDVGXFAF (Ac-WVTH[Cit]LAGLLS[Cit]SGGVV[hArg]K(20 KPEGald)NFVPTDVG[Oic]FAF-NH2) [SEQ ID NO 172] | 1.27
45 | WVTHXLAGLLSXSGGVVXKNFVPTDVGPXAF (Ac-WVTH[Cit]LAGLLS[Cit]SGGVV[hArg]KNFVPTDVGP[1-Nal]AF-NH2) [SEQ ID NO 674] | 0.64
